According to patent US11275076B2, “Systems and methods for assessing blood platelet function” (Medtronic, Inc., priority 2016, dated 2022):

Test system: fresh whole blood
Test: drop distance cycle tests (ferromagnetic washer) assessing clot retraction in blood samples
Assay type: cell-based
Settings: FIG. 4; for clot retraction (object drop distance over time): compared with fresh whole blood without platelet inhibitor, tests began after assumed clot initiation
Source text: Referring now to FIG. 3, a schematic drawing of a predicted trace 100 generated by successive drop distance test cycles of an object (e.g., the ferromagnetic object 32 described above) in blood over time that may be representative of data obtainable by an embodiment of a blood analysis system or apparatus of the present disclosure (e.g., the blood analysis system 20 of FIGS. 1 and 2). For example, and with additional reference to FIGS. 1 and 2, each test cycle includes the object 32 caused to move by the electromagnetic 34 toward the top of the chamber 30 and then allowed to drop; the drop distance of the object 32 is determined or sensed (e.g., an absolute drop distance is determined or sensed once the object 32 is at rest within the blood 40, or is determined or sensed at the end of a predetermined test cycle period). This so-determined drop distance serves as a single data point on the trace 100. The same drop distance test cycle is repeated for the same blood sample 40, at regular or irregular time intervals, over the course of an assessment time period with the result of each successive drop distance test cycle providing an additional data point from which the trace 100 is generated. (i.e., the determined “object drop distance” is plotted relative to the Y-axis at the corresponding point in time over the assessment time period along the X-axis).
As a point of reference, FIG. 4 presents the results of the drop distance cycle tests described above (using a ferromagnetic washer as the object) with three different blood samples. The first blood sample (“FWB”) consisted of fresh whole blood. The second blood sample (“FWB+5 ug/mL Reopro”) consisted of the fresh whole blood of the first sample and the platelet inhibitor Reopro at a concentration of 5 μg/mL. […] As explained in U.S. Pat. No. 8,921,115, clot strength can be another indicator of platelet function, and can be assessed (along with platelet retraction) with some systems and methods of the present disclosure. […]

B1: Reopro: the platelet inhibitor Reopro (antibody, chains of the INN, looked up, V domains shown)
VH: EVQLQQSGTVLARPGASVKMSCEASGYTFTNYWMHWVKQRPGQGLEWIGAIYPGNSDTSYIQKFKGKAKLTAVTSTTSVYMELSSLTNEDSAVYYCTLYDGYYVFAYWGQGTLVTVSA
VL: EIVLTQSPVTLSVTPGDSVSLSCRASRDISNNLHWFQQTSHESPRLLIKYASQSMSGIPSRFSGSGSGTDFTLSINSVETEDFGMYFCQQTNSWPYTFGGGTKLEIK
modifications: Fab
- object movement profile, dependence on platelet inhibitor concentration (comparison of 5 μg/mL and 10 μg/mL Reopro in fresh whole blood): dose dependent
- clot retraction (object drop distance over time) (fresh whole blood + 5 μg/mL Reopro): first blood sample (with normal platelet function) showed greater clot retraction that the second and third blood samples
- clot retraction (object drop distance over time) (fresh whole blood + 10 μg/mL Reopro): first blood sample (with normal platelet function) showed greater clot retraction that the second and third blood samples
